In US20250276092A1 (Regeneron, published 2025):

What was measured:
[1] = molecular target: T1, human CD40 expressed on cells (human, UniProt P25942 21-277); experiment: cell-based or functional assay
[2] = molecular target: T1, human CD40 expressed on cells; experiment: cell-based or functional assay; remark: listed apart in the source
[3] = molecular target: T1, human CD40 expressed on cells; experiment: cell-based or functional assay; remark: listed apart in the source
[4] = molecular target: T2, human CD40 extracellular domain expressed with a C-terminal myc-myc-hexahistidine tag (human); experiment: BLI Octet, hCD40-MMH captured on anti-Penta-His tips
T2 construct: also called hCD40-MMH; hCD40-mmH
Method: Binding competition between different anti-CD40 monoclonal antibodies (mAbs) was determined using a real time, label-free bio-layer interferometry (BLI) assay on the Octet HTX biosensor platform (Pall ForteBio Corp.). In addition to parental antibodies 21519P2, 21520P2, and 30027P2, a comparator anti-CD40 antibody (REGN11209) was also tested; this comparator has the heavy chain and light chain sequences of iscalimab (see, U.S. Pat. No. 8,828,396). The entire experiment was performed at 25° C. in 10 mM HEPES buffer containing 150 mM NaCl, 3 mM EDTA, 1 mg/mL BSA, 0.02% NaN₃, and 0.05% v/v Surfactant Tween-20 at pH 7.4 (HBS-EP) with the plate shaking at a speed of 1000 rpm.
To assess the ability of one antibody to compete with another antibody for binding to CD40, around 0.47 nm-0.54 nm of recombinant human CD40 extracellular domain expressed with a C-terminal myc-myc-hexahistidine (hCD40-MMH; SEQ ID NO: 53) was first captured onto anti-Penta-His antibody coated Octet biosensor tips (Fortebio Inc, #18-5122) by submerging the biosensor tips in wells containing 10 μg/mL solution of the hCD40-MMH for 90 seconds. […] The real-time binding response was monitored and the binding response at the end of every step was recorded. […]

[5] = molecular target: T1, human CD40 expressed on cells; experiment: cell-based or functional assay; remark: listed apart in the source
[6] = molecular target: T1, human CD40 expressed on cells; experiment: cell-based or functional assay; remark: listed apart in the source
[7] = molecular target: T1, human CD40 expressed on cells; experiment: cell-based or functional assay; remark: listed apart in the source

T1 sequence (P25942 21-277): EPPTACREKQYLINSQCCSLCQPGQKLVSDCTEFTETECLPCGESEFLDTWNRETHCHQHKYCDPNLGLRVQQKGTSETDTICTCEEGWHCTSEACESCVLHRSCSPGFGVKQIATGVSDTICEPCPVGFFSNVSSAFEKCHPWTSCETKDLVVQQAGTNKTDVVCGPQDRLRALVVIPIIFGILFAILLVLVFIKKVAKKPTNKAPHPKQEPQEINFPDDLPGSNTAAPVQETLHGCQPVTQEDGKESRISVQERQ
T2 sequence (chain, as listed by the source limits assumed): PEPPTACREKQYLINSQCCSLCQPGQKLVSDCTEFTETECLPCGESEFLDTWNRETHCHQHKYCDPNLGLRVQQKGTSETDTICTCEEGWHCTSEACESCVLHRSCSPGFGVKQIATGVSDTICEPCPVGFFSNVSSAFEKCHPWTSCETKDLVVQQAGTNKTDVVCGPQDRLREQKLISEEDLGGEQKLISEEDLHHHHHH

- % max blockade relative to no mAb, TNFa, B cells, donor 1 [1]: 53.9%
- % max blockade relative to no mAb, TNFa, B cells, donor 2 [1]: 71.4%
- % max blockade relative to no mAb, TNFa, B cells, donor 3 [1]: 73.9%
- % max blockade relative to no mAb, IL-6, assay #2, donor 1 [2]: 88.6%
- % max blockade relative to no mAb, IL-6, assay #2, donor 2 [2]: 88.3%
- % max blockade relative to no mAb, IL-10, assay #2, donor 1 [3]: 88.1%
- % max blockade relative to no mAb, IL-10, assay #2, donor 2 [3]: 90.5%
- binding result [4]: binds
- % max blockade relative to no mAb, IL-10, B cells, donor 1 [5]: 84.1%
- % max blockade relative to no mAb, IL-10, B cells, donor 2 [5]: 91.7%
- % max blockade relative to no mAb, IL-10, B cells, donor 3 [5]: 91.4%
- % max blockade relative to no mAb, TNFa, assay #2, donor 1 [6]: 62%
- % max blockade relative to no mAb, TNFa, assay #2, donor 2 [6]: 50.6%
- % max blockade relative to no mAb, IL-6, B cells, donor 1 [7]: 84.2%
- % max blockade relative to no mAb, IL-6, B cells, donor 2 [7]: 91.3%
- % max blockade relative to no mAb, IL-6, B cells, donor 3 [7]: 91.3%
B1: REGN11209 (comparator anti-CD40 antibody with the heavy chain and light chain sequences of iscalimab) (antibody, human IgG1, kappa, N297A, V domains shown)
VH: QVQLVESGGGVVQPGRSLRLSCAASGFTFSSYGMHWVRQAPGKGLEWVAVISYEESNRYHADSVKGRFTISRDNSKITLYLQMNSLRTEDTAVYYCARDGGIAAPGPDYWGQGTLVTVSS
VL: DIVMTQSPLSLTVTPGEPASISCRSSQSLLYSNGYNYLDWYLQKPGQSPQVLISLGSNRASGVPDRFSGSGSGTDFTLKISRVEAEDVGVYYCMQARQTPFTFGPGTKVDIRR
notes: also called COMP11209; CFZ533
